Measured values from article PMC5141500.

Tests used:
[1] = target: NTSR1-ELF (baculovirus construct with wild-type ICL3) (rat) (UniProt P20789)
[2] = target: NTSR1-EL (baculovirus construct with wild-type ICL3) (rat) (UniProt P20789)

Chain of Gq protein (P50148 whole entry, looked up): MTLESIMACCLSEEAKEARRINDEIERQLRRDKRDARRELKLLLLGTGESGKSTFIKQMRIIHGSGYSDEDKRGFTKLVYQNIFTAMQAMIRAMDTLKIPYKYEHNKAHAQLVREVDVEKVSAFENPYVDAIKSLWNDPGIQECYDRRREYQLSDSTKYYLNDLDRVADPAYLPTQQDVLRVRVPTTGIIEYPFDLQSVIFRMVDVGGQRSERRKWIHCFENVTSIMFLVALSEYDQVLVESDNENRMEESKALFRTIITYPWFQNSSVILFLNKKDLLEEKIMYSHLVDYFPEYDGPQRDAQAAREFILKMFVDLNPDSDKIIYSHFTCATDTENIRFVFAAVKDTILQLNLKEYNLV

Substance	Fold-stimulation by NTS GTPγS: GDP/[35S]GTPγS exchange on Gq at saturating NTS compared to no ligand, urea-washed P2 insect cell membranes and purified Gq protein [1] [fold]	Fold-stimulation by NTS GTPγS: GDP/[35S]GTPγS exchange on Gq at saturating NTS compared to no ligand, urea-washed P2 insect cell membranes and purified Gq protein [2] [fold]	EC50 (NTS) GTPγS, half maximal effective concentration of NTS on the exchange of GDP for GTPγS on Gq [2] [nM]
Gq protein (from UniProt P50148 1-359) (complex)	5.6	3.3	–
neurotensin (NTS) (peptide)	–	–	5.5
